Our source for the Kd values is patent publication US20220062373A1 (published 2022).

The target of this assay is T1, Recombinant human CD206 (MRC1/CD206) (human, UniProt P22897 19-1383).
T1 chain: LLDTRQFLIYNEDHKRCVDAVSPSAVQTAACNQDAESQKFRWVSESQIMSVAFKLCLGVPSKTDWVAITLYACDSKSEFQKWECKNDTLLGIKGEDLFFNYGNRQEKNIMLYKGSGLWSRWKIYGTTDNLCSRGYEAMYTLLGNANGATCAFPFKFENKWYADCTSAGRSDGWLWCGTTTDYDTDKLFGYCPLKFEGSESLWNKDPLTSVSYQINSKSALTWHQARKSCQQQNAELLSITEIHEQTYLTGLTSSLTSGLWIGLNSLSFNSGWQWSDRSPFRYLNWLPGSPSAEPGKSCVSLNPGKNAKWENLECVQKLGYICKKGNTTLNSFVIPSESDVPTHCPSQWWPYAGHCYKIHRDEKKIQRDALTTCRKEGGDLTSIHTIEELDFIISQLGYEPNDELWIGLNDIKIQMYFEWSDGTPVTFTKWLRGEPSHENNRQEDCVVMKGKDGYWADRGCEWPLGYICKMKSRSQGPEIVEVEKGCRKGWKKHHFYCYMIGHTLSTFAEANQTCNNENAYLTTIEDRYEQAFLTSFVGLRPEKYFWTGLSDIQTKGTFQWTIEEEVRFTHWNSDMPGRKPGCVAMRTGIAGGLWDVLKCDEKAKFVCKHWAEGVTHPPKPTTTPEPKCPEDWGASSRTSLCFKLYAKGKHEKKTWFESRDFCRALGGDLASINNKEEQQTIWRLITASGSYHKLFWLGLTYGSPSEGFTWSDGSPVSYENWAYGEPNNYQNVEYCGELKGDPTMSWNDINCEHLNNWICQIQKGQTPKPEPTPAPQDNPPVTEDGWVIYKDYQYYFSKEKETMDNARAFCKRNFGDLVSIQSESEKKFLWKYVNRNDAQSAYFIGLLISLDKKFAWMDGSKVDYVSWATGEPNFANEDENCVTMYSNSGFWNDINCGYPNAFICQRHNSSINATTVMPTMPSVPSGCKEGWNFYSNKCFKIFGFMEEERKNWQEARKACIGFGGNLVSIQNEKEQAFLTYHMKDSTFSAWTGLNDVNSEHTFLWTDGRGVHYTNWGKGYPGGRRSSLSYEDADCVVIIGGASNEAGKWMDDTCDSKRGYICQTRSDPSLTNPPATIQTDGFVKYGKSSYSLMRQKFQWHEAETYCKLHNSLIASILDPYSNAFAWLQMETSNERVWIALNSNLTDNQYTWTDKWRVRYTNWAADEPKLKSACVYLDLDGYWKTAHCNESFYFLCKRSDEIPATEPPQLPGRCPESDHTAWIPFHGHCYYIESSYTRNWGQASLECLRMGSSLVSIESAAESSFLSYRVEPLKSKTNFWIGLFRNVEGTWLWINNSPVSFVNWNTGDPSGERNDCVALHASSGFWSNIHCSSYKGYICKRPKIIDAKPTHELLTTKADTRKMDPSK
The assay can be described thus: MST.

As usually defined, the Kd is a measure of binding affinity in units of concentration. As for KFRKAFKRFF [RP-182], the Kd was 8.37 µM.
